Substitutions are numbered along the chain they refer to. Numbers in names are those of the source. Where two headings read alike, the source gives them in different places.
Assays:
[1] = tested on: SKOV-3 ovarian cancer cells; experiment: SKOV-3 cell viability, MTS assay; type: cell-based, human; conditions: 100 uM, 4-hour treatment, 3 days of growth
[2] = Cellular distribution, microautoradiography (MARG); type: in vivo, mice
Experimental: To obtain specific cell-type uptake information in select organs, microautoradiography analysis was performed on selected organs collected at various time points. For microautoradiography analysis (MARG), animals were anesthetized and blood collected, as described above. Tissue samples are trimmed to be approximately 0.5 cm^2, placed into cryosectioning embedding media on a cryosectioning sample holder, and frozen in isopentane that is cooled with liquid nitrogen. Frozen samples were stored in liquid nitrogen until analysis by MARG. For analysis, tissues were cryosectioned at 5 μm under darkroom conditions, and collected onto glass slides that are pre-coated with photographic emulsion (Kodak NTB photographic emulsion). Slides were placed in sealed light-safe slide boxes and allowed to expose the photographic emulsion for 7 days before being developed, fixed and stained with hematoxylin and eosin. All slides were examined for cellular localization using light microscopy.

[3] = mouse, in vivo
[4] = mouse, in vivo; remark: listed apart in the source
[5] = Stability following multiple freeze/thaw cycles (protein concentration, analytical SEC); type: physicochemical; conditions: two freeze/thaw cycles
Experimental: The stability of this cell penetrating domain of FGF10 was evaluated following multiple freeze/thaw cycles. To do this, protein concentration measurements and analytical size exclusion chromatography were carried out comparing protein which had undergone zero, one, or two freeze/thaw cycles. […] The study indicated about 75% stability of this protein after two freeze/thaw cycles.
Purified protein was subjected to the indicated number of freeze/thaw cycles (each freeze/thaw cycle consisted of snap-freezing the protein in liquid nitrogen, placing it at −80° C. for a minimum of two hours, and then thawing it on ice) and analyzed by size exclusion chromatography. After each thaw, the protein was subjected to 20,000×g centrifugation to remove any precipitation. The protein concentration of each sample was measured by A280, considering the extinction coefficient (24540) and molecular weight (19.57 kDa). In each case 40 μL of the protein was applied to a Superdex 75 10/300 GL column (GE Healthcare). The column running buffer was the same as the protein storage buffer (20 mM Hepes, pH 7.5, 0.5 M NaCl).

Hela cells = experiment: Cell penetrating activity, anti-myc flow cytometry; type: cell-based; conditions: 1 uM, 20 minutes
Experimental: On the day prior to the assay, 10^6 Hela cells were plated in each well of a 6-well plate and incubated in the 37° C. CO2 incubator overnight. The cells were washed once with PBS and then were replenished with 1 mL of serum-free DEMEM (A) or media containing 1 uM of the FGF10 domain construct FGF10-myc (B, C, and D) and were incubated for 20 minutes in the 37° C. CO2 incubator. The cells were then washed three times with ice-cold PBS. For (C) and (D), cells were treated with 0.25% trypsin/EDTA and washed three times with PBS. The cells in (D) were fixed for 10 minutes with 1 mL 4% formaldehyde and permealized for 5 minutes with 0.2% saponin. Then 10 uL of 0.1 mg/mL FITC labeled chicken polyclonal anti-myc tag antibody (Abcam #1394) was added to all the cells and incubated at 4° C. in the dark for 2 hours. The cells were washed three times with ice cold PBS. Cells in (A) and (B) were detached with 1 mL 10 mM EDTA. Cells were analyzed using a BD Accuri™ C6 flow cytometer.

[6] = tested on: HepG2, Hela and SW626 cells; experiment: Internalization of p16 fusion proteins, flow cytometry; type: cell-based; conditions: 2 uM, overnight
Experimental: On the day prior to the assay, HepG2 (hepatoma), Hela cells, and 10^6 SW626 cells (ovarian) were plated in each well of a 6-well plate and incubated in the 37° C. CO2 incubator. The cells were washed once with PBS and then were replenished with 2 mL of growth media containing 2 uM of p16, +36GFP-p16 or FGF10-p16 proteins and were incubated overnight in the 37° C. CO2 incubator. The cells were then washed once with PBS and detached with 0.25% trypsin/EDTA. The cells were fixed for 10 minutes with 1 mL 4% formaldehyde and permeabilized for 5 minutes with 0.5 mL 0.4% saponin. Then 2.5 uL of 1 mg/mL FITC labeled chicken polyclonal anti-myc tag antibody (Abcam #1394) was added to all the cells and incubated at 4° C. in the dark for 2 hours, except for cells treated with +36GFP-p16 (GFP itself was used for detection). The cells were washed twice with ice cold PBS and were analyzed using a BD Accuri™ C6 flow cytometer.

FGFR2b receptor = FGFR2b receptor (Homo sapiens, UniProt P21802); conditions: relative to unmodified FGF10; cited from earlier work
Sequence of FGFR2b receptor (P21802 22-822 isoform P21802-3 limits assumed): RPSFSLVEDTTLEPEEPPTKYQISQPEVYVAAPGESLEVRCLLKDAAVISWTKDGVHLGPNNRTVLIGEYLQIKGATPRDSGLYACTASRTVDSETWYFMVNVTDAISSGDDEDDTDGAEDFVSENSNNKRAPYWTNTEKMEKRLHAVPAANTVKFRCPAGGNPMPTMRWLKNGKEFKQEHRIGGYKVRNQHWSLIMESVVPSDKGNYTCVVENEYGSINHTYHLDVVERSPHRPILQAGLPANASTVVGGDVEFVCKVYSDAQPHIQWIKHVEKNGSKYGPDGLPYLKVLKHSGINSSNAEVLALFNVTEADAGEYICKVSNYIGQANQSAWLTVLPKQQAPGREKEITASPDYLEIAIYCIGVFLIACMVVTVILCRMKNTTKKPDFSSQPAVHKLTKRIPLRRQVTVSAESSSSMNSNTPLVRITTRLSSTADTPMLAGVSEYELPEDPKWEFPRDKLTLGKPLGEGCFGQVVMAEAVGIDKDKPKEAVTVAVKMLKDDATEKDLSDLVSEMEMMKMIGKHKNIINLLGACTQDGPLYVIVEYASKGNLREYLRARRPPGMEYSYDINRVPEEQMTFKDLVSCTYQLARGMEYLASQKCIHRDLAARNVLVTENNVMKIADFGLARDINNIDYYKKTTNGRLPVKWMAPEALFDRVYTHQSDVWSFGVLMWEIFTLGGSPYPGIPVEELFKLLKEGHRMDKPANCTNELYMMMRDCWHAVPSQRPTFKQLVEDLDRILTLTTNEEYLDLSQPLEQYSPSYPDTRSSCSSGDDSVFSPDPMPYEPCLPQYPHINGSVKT

mitogenic activity [7] = experiment: Mitogenic activity of FGF10 variants; conditions: tetramutant vs native FGF10
mitogenic activity [8] = conditions: relative to wild-type; cited from earlier work
[9] = trypsin, fixed and permeabilized

CC(=O)c1c(C)c2cnc(Nc3ccc(N4CCNCC4)cn3)nc2n(C2CCCC2)c1=O [PD-0332991]
inhibition of cell proliferation [1]: complete inhibition of cell proliferation

FGF10
cellular distribution in kidney ([2]; kidney MARG): uniformly distributed throughout the kidney | cellular distribution in liver ([2]; liver MARG): uniformly distributed throughout the liver tissue including in hepatocytes | levels of injected protein in liver, spleen, kidney, urinary bladder, adrenal gland, thyroid gland [3]: high levels | partitioning between plasma compartment and blood cell compartment [4]: favor the plasma compartment | stability after freeze/thaw cycles ([5]; listed as His6-FGF10-myc): 75% | stability after freeze/thaw cycles ([5]; listed as Hisx6-FGF10-Myc): about 75% | cells with protein present on the cell membrane (Hela cells; no trypsin): 98.8% | cells stained positive for FGF10 after trypsin treatment (internalized) (Hela cells; [9]): almost all the cells stained positive

B1: FGF10-p16: fusion protein of FGF10 domain and full length human p16, SEQ ID NO: 6 (protein)
chain: MEQKLISEEDLGSGRHVRSYNHLQGDVRWRKLFSFTKYFLKIEKNGKVSGTKKENCPYSILEITSVEIGVVAVKAINSNYYLAMNKKGKLYGSKEFNNDCKLKERIEENGYNTYASFNWQHNGRQMYVALNGKGAPRRGQKTRRKNTSAHFLPMVVHSGHGGGGSGGGGSMEPAAGSSMEPSADWLATAAARGRVEEVRALLEAGALPNAPNSYGRRPIQVMMMGSARVAELLLLHGAEPNCADPATLTRPVHDAAREGFLDTLVVLHRAGARLDVRDAWGRLPVDLAEELGHRDVARYLRAAAGGTRGSNHARIDAAEGPSDIPDGHGHHHHHH
treated cells stained positive [6, 9]: ~30%

B2: FGF10 E158K/K195A: FGF10 mutant with two substitutions E158K/K195A; domain variant in SEQ ID NO: 8 (protein)
chain: GRHVRSYNHLQGDVRWRKLFSFTKYFLKIEKNGKVSGTKKENCPYSILEITSVEIGVVAVKAINSNYYLAMNKKGKLYGSKEFNNDCKLKERIEKNGYNTYASFNWQHNGRQMYVALNGKGAPRRGQKTRRANTSAHFLPMVVHS
decrease in binding to the FGFR2b receptor (FGFR2b receptor): approximately 4 fold

B3: tetramutant: variant of FGF10 domain with four substitutions at positions 78, 114, 158, 195, SEQ ID NO: 10 (protein)
chain: B2 chain with R15A, T51R, K95A
mitogenic activity (mitogenic activity [7]): reduced mitogenic activity

B4: FGF10 R78A: FGF10 mutant with one substitution R78A; domain variant in SEQ ID NO: 9 (protein)
chain: B2 chain with R15A, K95E, A132K
decrease in binding to the FGFR2b receptor (FGFR2b receptor): approximately 4 fold | mitogenic activity (mitogenic activity [8]): significant decrease

B5: p16: human p16 tumor suppressor protein alone, SEQ ID NO: 5 (protein, listed as Homo sapiens)
chain: MEPAAGSSMEPSADWLATAAARGRVEEVRALLEAGALPNAPNSYGRRPIQVMMMGSARVAELLLLHGAEPNCADPATLTRPVHDAAREGFLDTLVVLHRAGARLDVRDAWGRLPVDLAEELGHRDVARYLRAAAGGTRGSNHARIDAAEGPSDIPD
cell penetration [6]: does not

Source: US20150307576A1, “FGF-10 COMPLEXES” (PERMEON BIOLOGICS, INC., priority 2012, published 2015)
